Test results taken from the RNAGym collection of RNA variant scans (doi:10.1021/acssynbio.7b00057).

B1: Pistol ribozyme (parent)
chain: GGGUCGUUGUUCCAUAAUCGCGUGGAUAUGGCACGCAAGUUUCUACCGGGCACCGUAAAUGUCCGACUGGAGCCGUUCGGGCGGCUAUAAACAGACCUCAGGCCCGAAGCGUGGCGGCACCUGCCGCCGGUGGUAAAAAAGAUCGGAAGAGCACACGUCU

Variants of: B1
Experiment: aptazyme ON/OFF ratio, guanine; higher = stronger switching; co-transcriptional cleavage with and without guanine

Row | Variant | aptazyme ON/OFF ratio
1 | U7G U8A U10G C12A C13A | 1.58
2 | U7G U8A U10G C12A C13G | 1.11
3 | U7G U8C G9C U10C U11C C12G | 1.06
4 | U8C U10C U11A C12A C13U | 1.25
5 | G9C U10A U11A C12A | 1.52
6 | U8G U10C U11G C12G | 1.23
7 | U7G U8A U10C C12A C13A | 1.39
8 | U7C U8G G9A U10C U11A C12A C13G | 1.08
9 | U7C U8A G9C U11A C12A C13G | 1.08
10 | U8G G9C U11A | 1.13
11 | U7C U10G U11G C12A | 1.2
12 | U7A U8G G9U U10A U11A C12G | 1.33
13 | U7G U8G G9A U10A U11A C12U C13U | 1.24
14 | U7G U8A U10G U11G C13A | 1.28
15 | U8A U10C U11C C12G C13U | 1.11
16 | U7C U8A U10C U11A C12U | 1.19
17 | U7A U8C U10G U11C C12A | 2.43
18 | U8G G9U U10C C13G | 1.03
19 | U7G U8G G9C C13A | 1.42
20 | U7G U8G G9A U11G C12A C13G | 1.09
21 | U8C U10C U11G C12A | 1.15

Row | Variant | aptazyme ON/OFF ratio
22 | U7C U8G U10G C12A C13A | 1.24
23 | U8A G9A U10C C12U C13G | 1.26
24 | U7G U8C G9U U11C C12U C13A | 1.31
25 | U7G G9U U10C U11A C12G C13G | 1.13
26 | U7A G9U U10C U11G C13G | 1.09
27 | U7C G9A U10C U11C | 1.12
28 | U8C G9C U10C U11G C12A C13U | 1.15
29 | U10G U11C C12A C13A | 1.23
30 | U7C U8A G9U U11G C12U C13U | 1.24
31 | U7A U8A U10C U11C C12A C13A | 1.06
32 | U7C U8C U10A U11A C12G | 1.24
33 | U7A U8A U10G U11G C13G | 1.12
34 | U7G U8C G9U U10G U11C C12A C13U | 1.37
35 | U7G U8C U11A C12A C13G | 1.1
36 | U7G U8A C12A C13A | 1.27
37 | U7A G9C U10A U11C C12G | 1.21
38 | U8C U10C U11C C12A | 1.25
39 | U7A U8G U10C U11A C12A C13U | 1.37
40 | U7G U8C G9A U10C U11C C12U | 1.09
41 | U7A U8C U10C U11C C12U C13U | 1.07
42 | U7A U8C G9C U10A U11A C12A | 1.09

Row | Variant | aptazyme ON/OFF ratio
43 | U7C U8G G9C U10G U11C C12A | 1.24
44 | U8G G9A U11A C12U C13A | 1.24
45 | U7A U8C G9A U10G U11A C12A | 1.13
46 | U7C U8A U10C U11A C13U | 1.16
47 | U7C U8G G9C U10A U11G C12A C13U | 1.18
48 | U7C G9A U10G U11C | 1.08
49 | U7C G9C U10A U11G C12A | 1.11
50 | U7C G9C U10A U11G C12G | 1.29
51 | U11C C12U C13A | 1.4
52 | U7C U8C U10C C12G C13U | 1.2
53 | U7A U11C C12U C13G | 1.38
54 | U8C U10C U11A C12U C13A | 1.26
55 | U7G U8G G9A U10G U11C C13U | 1.08
56 | U7C U8A U10G U11A C12A C13A | 1.14
57 | U7C U8G G9A U11G C13U | 1.13
58 | U7C G9A U10A U11G C12A C13A | 1.08
59 | U7C G9A U10G U11C C12G | 1.32
60 | U7G G9C U10C U11G C12G C13G | 1.08
61 | U7G G9C U10C U11G C12G C13A | 1.09
62 | U7C U8C G9C C12A C13A | 1.08
63 | U7G U8G G9U U10A U11C C12G C13A | 1.08

Row | Variant | aptazyme ON/OFF ratio
64 | U7G U8A G9A U10G U11A C12U C13G | 1.06
65 | U7A U8A G9U U10A U11C C13U | 1.01
66 | U7C U8G G9U U11C C13U | 1.09
67 | U7A U8G U10G C12U C13U | 1.26
68 | U7C U10G U11A C13A | 1.1
69 | U7C U8C U11A C12G | 1.14
70 | U8A G9U U10C U11A C12G C13A | 1.15
71 | U7A U8G G9C U10C U11C C12A C13A | 1.01
72 | U7A G9A U10A C12G | 1.21
73 | U7C U8C G9C U10C U11G C12A | 1.18
74 | U7A U8A G9C U10A U11G C12A C13U | 1.08
75 | U7G U8G G9U U10C U11A C13A | 1.38
76 | U8C U10A U11G C12U C13G | 1.22
77 | U7C U8G U10A U11C C12U | 1.04
78 | U7G U8C G9A U10A U11G C12G C13U | 1.09
79 | U7C U8G G9A U10C C12U | 2.39
80 | U7G U8A G9U U10A U11G C12G C13G | 1.15
81 | U7A G9C U10G U11G C12U C13A | 1.09
82 | U8A G9A U11C C12G C13U | 1.22
83 | U7G U8G G9U U11C C12G | 1.43
84 | U7C U8A G9C U10G U11A C12G | 1.32
